Test results published in the DeepSol protein solubility set.

Test: soluble on expression in E. coli; label from the status in PepcDB or PDB records

Soluble on expression in E. coli, not soluble:
MGSDKIHHHHHHMDAILMSLMTALNEHLLINVYQRDTDDFYTGYVQVLGHDAVVLGTYNDSGIADGCALIAFSAIDQVEFAGDDLDSMNFRINLAQAQHFLTLQGQEKPLQFDATQNLIQQLATQAKANGQMVMVVVADDDAYLEGQVTAVAEDRFSMAIFNKFNYTDVRALQVDFSDILVMEFHGLDLKLETELVWQRDHLKHVATKLYQNDGQLAGVFQNALANNRLISVVPKGPEDQFFVGRVKAVNDRVVVLSLKDMAGQFGGYILLTLPSIQNVATASDYLQTISFYEKWDQTHHFSQQPVLNADREFDPNDDLIRTIISEAAGFERVVRIKVADSDEHFLGYPENVGETDFDLNLVGPDDGETAQIRYGQIREIAFGHIFAYLQEAQLKNAGR
MGSDKIHHHHHHMDALEIHRFLKGKIRTALPVEKVDRETLSLLYTPGVADVARACAEDPEKTYVYTSRWNTVAVVSDGSAVLGLGNIGPYGALPVMEGKAFLFKAFADIDAFPICLSESEEEKIISIVKSLEPSFGGINLEDIGAPKCFRILQRLSEEMNIPVFHDDQQGTAVVVSAAFLNALKLTEKKIEEVKVVVNGIGAAGYNIVKFLLDLGVKNVVAVDRKGILNENDPETCLNEYHLEIARITNPERLSGDLETALEGADFFIGVSRGNILKPEWIKKMSRKPVIFALANPVPEIDPELAREAGAFIVATGRSDHPNQVNNLLAFPGIMKGAVEKRSKITKNMLLSAVEAIARSCEPEPERIIPEAFDMKVHLNVYTAVKGSA
MGSDKIHHHHHHMDCNGSGGSSDDDKPLHHDGGVRMKFFRSVGEVFGYSPFRSLAQHARMCGRAVGLLQQQFEALRRGNYEEVEELREEIDELEHHADQIKEEIRGNVTKSLMLPVDRHDLLEFLKVQDDILNNCEHVGHMVTFRKVSAPEDVWDEFLVLLSKLMEIVNNYEEMVERIMQLVETSFSKKEVNRALEYVPIIEQLEHECDLIQIGLHTKLFNLENSNPLDIQLMVTWVVHLGYVANAAARASDRFRIMILGR
MGSDKIHHHHHHMDEFDYVRRKLIERILHLTEKQPVVRPLPGLTVGRRESPTEPSTYILPPSICIAVQGAKRVLIGEEYYVYDVENFLLNSFDVPVVAQVIEASKEKPYIGMTWEIDMEILMEIVVEQKLNTRPITSSRGTSLGKVTHQLLDAFRRMLELLDEPEHISALLPVIKKEIIYRLLVSEQGPRLIQIALSGKNDVITALNYLKEHFNESVNMKRLAEMVGMSVSTFYQNFKILTGMTPLQYQKKLRLCEARKLLMAGSDVTTAAYQVGYESLSQFSREYKRFFGVSPSQDAKKLKEEPYTRILY
MGSDKIHHHHHHMDEQVTILHTNDIHSHFENWPRIQRYLLTEREQRRQSGSHVITVDLGDAVDRAHPLSEATQGQANVALLNAIGYDAVTIGNNEGLGLTHAALNRLYDRANFDVVLDNLTDTATQRPPQWALPAKIITTARGTRVLLLAFTAPFTLTYPLNGWTPASVKTRFPELLRQYAGQYDVLIVMSHLGINVDRWLAKQFPVIDVVIGSHTHHLLVNGELKNGVLIAAAGKYGEYIGRIELTIDHQHHVKAAAAHTVATASLPIVAGDETLITGWEQQGETLLTRQVVAKVPTQLRPHWHHASDLTALGLAAITDYAKTDLGMLNGGLFMRDLPAGMVNRNDLHTMLPHAMHVIRVTLSGEALWRLVYEMELVRPFLNKFPIKGMGFRGQVFGYIQYQGLTWKTGQHTLLVNGQPVNRQQTYQIALLDHDLFIPFFPTINISGRTEILFEAMLRTVVGDYLMRRWPVK
MGSDKIHHHHHHMDFTEYQEEIIEDVKSCLESLQVQPILFMGAGISQRYIKAPDWEGLLKQLAEICPLIKRHYGYYSQTKGDNKPLIASDFCDFYAEWAWDDGKDRYPETYFEGTTPKDIYIKHEIASILNELSNSVDFSNMEYTEEVQKLRKVKPHAIITTNYDDTLEKIFDNYQAIVGHNVVKVNYSSYGEIMKIHGSSHEVESIVITNEDYVDFYKRKKYISAKLLTYFAEHPLFFFGYSINDENIKAILSDIDEIIAPNNALIPNIYLVSFSKDCEATGSHQKELLIGVGENKSIRIKVIYANDFGWIFDALSSNTPEISVNPKLVRAFLARTYTFASESLVKQELPYDFEMFRDIAEHDDALAKMYGIAELNNGQALNASFPYTMSDLARILDMGSWHYVNQEFEKLRKLTDFNIKASDNNYHVFIKSGKSGVGKYSSEALDLLRKLINGEQFELNP
MGSDKIHHHHHHMDGREIELKLALAPEDLARIAQRPCLSAGRLAEPTSKRLSSIYYDTSDHILASQGIAVRVRRTGSGFVQTVKTAGTSVSGLFDRDEWEVPLASPDLDAEQLRLTGLAAFADGELADLLTPVFSTEVDRVLIRLGGEGWEAEVALDRGALVVGDRREEISEVELELVSGTPAHLFRLATHIQAETAARPLCLSKSERGYSLAAGKTAPVVKAKAPILTPAMTVEESFRAIARACLEHLMLNERCLLATEAGEAIHQMRVAMRRMRSAIKVFKAVTEGPDLERIKDDLRWLLAHLGPARDADVFLSEIVDPVLAAHPGNAGLIALRAHWRKDRETKLAAAISAVKSKRYATMTLNLGRWVETGDWLTPSHGGARRRLAEPIATFAAGRVGKVVTRLLKEGGETLSRLSPEQRHAVRIRGKQVRYAGEFFASLVPRKSTKVYLSELAELQDVLGKLNDIAVAGPKLSGRGAGAGSSRAAGLIAGWHQSRRATLLNDADKCWKRWRALPLPWDEK
MGSDKIHHHHHHMDIRHLRYFVSIVDNDFNLSRASLNLYVSQPALSMMISDFENKEGVQLFKRAQGKIVGLTYVGENYYRDAKEVIKKYNEMHSNLHKSIEQIKGHISIGIPPLILSVVFSEVMPKLILNNPEINFTIKELGAYLLKSDLLLENIDFAVLLNPERISKNIIESYEIHRSELSLFLSPKHHLSAKENITWRDLHGEKIVIFDQTFMIHHQLVESFERHNVYPNIVLKSSSWDFLLYSVKINESLLTILPLPMYEQYKSTEFICRRMEEAIPWSVTLCRLKKNCYTNVEEYIFDSLLKAFKP
MGSDKIHHHHHHMDKPMTENPVHPAEAGPSGPADAAGKAPGLAAVESRQRMRDGTELLLRTWEPDPCMFPETVGCVLLVHGLAEHCGRYQHVAEVLCGLGLRVRAYDQRGHGASGGARMVAEHPDAYLNDLVEIHDAAVRVWKELPILLGHSMGGLVAARFATARLRPVRALVLSSPALALRLSPTMLTIHRVLLTLAPRLRVPNPIDARMLSHDAHVVARYRADPLVQTTITAGVLESFIRGMAQAQTDAPRLEAPMLMLVGGADKIVDPGGSRTFFDHAPADLREEVWFGEGYHEIFNEAEPLRSKVFAALTDWLRRHLAQPV
MGSDKIHHHHHHMDKVIEMKGITKVFPGTIANDNVNFELTRGETHVLLGENGAGKTTLMNILYGLYHPEKGQIIVNGKSVQFSGPNDAIKSGIGMVHQHFMLVNNFTVAENIVLGMEPKNGIRVDMGKAINNVKELSDKYGFAIEPKAIIEDISVGQQQKVEILKALYRGADVLILDEPTAVLTPQEIDELGDIIENLKKEGKSVILITHKLKEVMKMSDRVTIIRRGKVTGTVNTKDTSIDELAELMVGRKVNLTIAKKESKAGKEVLRVEELKVKDHRDVLVVKGINLVVNSGEILGIAGVDGNGQSEFIEALTGLKKVESGNVILNGKNISGKSAKYITNSGVGHIPEDRHKRGLVLKYSLYENSILGMHHRKPFSRMFNINYKAVRKHCKKLIEEFDIRTPNDEVNAAALSGGNQQKLVVAREISRNPDLLIASQPTRGLDVGAIEYIHKRIVEERDKGKAVLLVSLELDEILALSDRIAVMYDGKIVDVLERKDADEKKLGILMAGGNLDKKESVNTVEER
MGSDKIHHHHHHMDMLLKKILGTFGVSGREKEISEVIKEELNKYPCEVREDKLGNIIVKLGSGREKIMLSTNMDKKGVITYHIEEDGKVRIDAIGDIKADDIIGKTVVFRSGIEGKIESEKKENNEFRDIYVNVNMGKREAVLKYISEGEAAEFGGNTFADKENVVGPYLSNRAGCYAFLKVIKEIKSIDKEVYFVFSTQGNLNGRGARAAAFEIEPDMCISVNTEKEGEVKLSEGPILVLMEKGLITNYHVKEQIISSAEKAQIKLQRCVSSESSDGSVVHKEVGGIKTGTIALPCKNKNETNETISLNDVDDLVKLLQYIVKK
MGSDKIHHHHHHMDNKTQEKADFTLANAYGGVEMVRADYKGQAFSKHVHEGYTIGVIEKGAQRFYRSGEIHTADTNSIILVNADDVHTGESASSGGWQYRAMYPLPEHFENISNDLYDKGKFAPYFGSSVINDPLLTDQLRLLFNQVDNNASQLLTETIMYSLMLRLTLRHSSLRHVPKDISGSKAKLLRVKEYLDSYPAEDISLKQLAIIAGLSQYHFIRQFKKMFDLAPHSYQIQARLKKAKTLLKAGVKPVMVASDCGFHDQSHFNRHFKKALGTSPSKFQKQAVLYKN
MGSDKIHHHHHHMDPIEFIQKSASSIASTMHKLKLKYNPFSEKPIRGNTKFFVGRVSELREIGEILGSALHGSVANAAIVGTKGIGKSSMLNIIYYATKKQGHWVVEMTASQVTPRQFLIQLLYNILTENIITMSGTIKSDYMEHSSRILDMYRKLNNYGDKVPIHYPRERIERDLEYLINEVKSPDKLCIILIDEADQFAKKSCLSLLQFFHSFLYEEGILTFMAGSPTLMDDLTKISPPIKDRIPKIINMPPLSKDESYDLIRRRLEDAHIDGAEEFEPFTEEAIHKIVEECDGIPRKIIMTCSESISIAIRKGLTKIDEKVVKEAMHSLGISVGHQILNHLTPAQSEIVRAMAELGGSATVTQLAEYLKKSPSTIGTHLSDIYEMGYIYKEREGNNVYYKLSKELRDVLIGEDDELEM
MGSDKIHHHHHHMDQAQIEIQVLSSLSQIAASDWDACACPEAEAGGRPLDPFTTHRFLSALEDSGSVGQGTGWQPQYLTCYLDGQLVACAPLYAKGHSQGEYIFDHNWAHAYERAGGRYYPKLQVAVPFTPATGRRFLVRPGYEEIGISALLQGAVQLASDNQLSSLHVTFCTSDEAEAGREIGLMSRSSQQFHWLNDGYAGFEAFLAALSSRKRKNIRKERKQAQGFGGSIETYTGADLRSEHWDAFWRFYQDTGSRKWGTPYLTRAFFEIIHDTMAEDMALVLAERDGVPVAGALNFIGAKTLYGRYWGCMEHHPCLHFELCYYQAIDLAIEMGLDRVEAGAQGEHKLARGYLPTETHSLHWVADPGFRAAIEQYLEAERAAVGEEIEILTSYGPFKKTHVEEQE
MGSDKIHHHHHHMDRILTFDCYGTLIDTKPVFDAISNIAKNNILNSKDAVNIYVNYEDRLMYGETYIPYDKLIKQVLEYCDMELVTNVFSKSYDEIISVHKRLKPFKEVVESLEKIHKKGYELALMSNSVHDIIDYNLDALGNVFNNVFLSEDIHAYKPQLKFFKYVEERLELKQKKHCHIAKGYWWDIVPCSKLGWRKIWVNRENKKGNKCHEPYEEVHTLDEVINLI
MGSDKIHHHHHHMDRKMNFVMISPHFPANFETFAHRLYENGINTLGIADTPYEQLSQGLRDHLTEYYRVDNMEDYDQVYRAVAYFAHKYGRIDRIESHNEYWLELDAHLRTDFNVFGYKNEDMLSIKTKARMKEIFRKTGIKVARGRVFTSTEDARALTKELGFPVIIKPNSGVGASDTYKIKSAEELEDFFGYQNPTVDYIMEEFIDGDIVTFDGLTDHEGNIVFYSSLEYSEAVLDTVEKDNDMFYYVPRDISPELIKLGEQCVEAFNVKERFFHFEFFRIKKTKDLMALEVNCRPPGGLTIDMWDYANDFDVFNEYAHIVKDNRFEAHITRPYNVVYIARKANKHYAHSIEDIETKFGHHIIEIESVPGIFAKIMGEVGILARTETMNEMRDIICFAHAKI
